# Measurements published in patent US8362216B2, “Method of detection using antibodies that specifically bind hedgehog-derived polypeptides” (The Johns Hopkins University School of Medicine, priority 1994, dated 2013).
# How the values were obtained:
# cholesterol biosynthesis = test: Sterol analysis by HPLC of COS-7 cells metabolically labelled with [3H]-mevalonic acid; type: cell-based, green monkey; conditions: 28 mM jervine
# Procedure: Given the structural similarities of these compounds to cholesterol and the similar teratogenic effects of cholesterol synthesis inhibitors upon the offspring of pregnant rats, a reasonable mechanism to consider for the effects of these plant sterol derivatives was the inhibition of cholesterol biosynthesis. Accordingly, COST cultured cells treated with jervine were tested for defects in cholesterol biosynthesis by labelling with [3H]-mevalonic acid and then extracting and analyzing radiolabeled, non-saponifiable lipids.
# Metabolic labeling and sterol analysis was essentially as described (Popjak et al. J. Biol. Chem. 264: 630-6238.1989; Rilling et al. 1993 Arch. Biochem. Biophys. 301: 210-215.), with minor modifications. Briefly, COS-7 cells were plated at ˜35% confluence into two 60 mm dishes at 37° C. in 4 ml each of Dulbecco's modified Eagle's medium (DMEM) supplemented with 10% fetal bovine serum (FBS). After 24 hr of growth the medium in each dish was replaced with 2 ml fresh medium with 10% FBS; [^3H]-mevalonic acid (NEN #NET 176) brought to a specific activity of 0.8 Ci/mmol in a 1% solution of bovine serum albumin was added to this medium to a final concentration of […]. At this time, one dish received […] of a 4 mg/ml solution of jervine in ethanol (final concentration 28 mM jervine), and the other received […] of ethanol. After 24 hr further incubation, cells were washed in PBS, extracted with methanol, and 1 M potassium hydroxide (KOH) added to 10%. Following a three hour incubation at 60° C., the methanol/KOH mixture was extracted with diethyl ether, the extract dried down, resuspended in isopropanol, and subjected to reverse phase HPLC analysis by the method of Rodriguez and Parks (Methods in Enzymology 111: 37-51 1985).
# auto-proteolysis = test: In vitro translation of wild-type and mutant Hh proteins (mapping of auto-proteolysis); type: biochemical, Drosophila; zebrafish
# Hh autoprocessing = test: In vitro autocleavage assays of site-directed mutant His6Hh-C proteins; conditions: 6 hours at 30° C.
# [1] = system: wg and dpp expression in imaginal discs; test: Signaling in imaginal discs of thermally cycled larvae (wg-lacZ / dpp-lacZ, X-gal staining); conditions: thermal cycling of larvae
# Text: For studies of signaling in imaginal discs, a thermal cycler was utilized to subject larvae carrying heat shock-inducible hh constructs to successive rounds of heat shock and recovery. The effects of temperature cycling upon expression of dpp and wg in imaginal discs was examined by monitoring β-galactosidase expression from a reporter gene carrying dpp promoter sequences or from an enhancer detector P element inserted in the wg gene. In FIG. 7, X-gal staining was used to follow expression of wg FIG. 7 (A-C) or dpp FIG. 7 (D-L) in imaginal discs of late third-instar larvae that carry wg-lacZ or dpp-lacZ reporter genes.
# Virgin female flies from the homozygous lines hshh (D. T. Chang et al., Development, 1994, in press), hshh H329A, and y^1 w^1118 were crossed to males from the homozygous BS3.0 line (bearing a P element dpp reporter construct on the 2nd chromosome, referred to as dpp-lacZ) (R. K. Blackman, et al., Development 111: 657, 1991) or the line y; Sco/CyO, enlacZ11::wg (bearing a wg reporter P element enhancer trap on a second chromosome balancer; called wg-lacZ) (J. A. Kassis, et al., Proc. Natl. Acad. Sci. U.S.A. 89; 1919, 1992). Progeny were grown at 25° C. in aerated 0.5-ml microcentrifuge tubes containing yeast paste until the late second instar or early third instar stage of larval development. […]
# wg expression = test: Embryonic induction of wg expression after heat shock of hshh / hshh H329A embryos (in situ hybridization)
# Text: To ascertain the importance of auto-proteolysis for these functions, the H329A mutant gene under control of the hsp 70 promoter was introduced by P element-mediated transformation into the Drosophila germline. The hshh H329A construct was made identically to the hshh construct with the use of a hh ORF fragment containing the H329A mutation. Transgenic flies were generated from a y^1 w^1118 parental strain using standard methods of P element mediated transformation (A. C. Spradling and G. M. Rubin, Science 218: 341 1982). […] To assay for expansion of wg stripes, embryos collected at 4 to 6 hours after egg laying (AEL) at 25° C. were subjected to the following heat shock protocols prior to fixation. Embryos receiving single shocks (10 or 30 minutes at 37° C.) were allowed to recover for 1 hour at 25° C. Embryos receiving double shocks (two 10 minute or two 30 minute shocks at 37° C.) were allowed to recover 90 minutes after the first shock and 40 minutes after the second (Both recoveries were at 25° C. The double 30 minute protocol was as previously described, (S. Krauss, supra). In situ hybridizations were performed as described (D. Tautz, Chromosoma 98: 81, 1989) using a wg specific probe (D. T. Chang et al., supra). Embryos assayed for cuticle phenotype were heat shocked 6 to 8 hours AEL for 30 minutes at 37° C., allowed to develop at 25° C. for 36 hours and then processed and mounted as described (M. Ashburner, Drosophila: A Laboratory Manual, Cold Spring Harbor Laboratory Press, New York, 1989).
# [2] = system: pax-2 and pax-6 expression; test: Ectopic expression of twhh derivatives by mRNA injection into zebrafish embryos; type: in vivo; conditions: mRNA injected embryos
# Procedure: To gain insight into the potential roles of hh products in development, synthetic twhh and shh mRNA was injected into 1-8 cell embryos. This technique yields a mosaic but fairly uniform pattern of expression, as determined for the control mRNA encoding β-galactosidase (not shown). Uniformity of expression is in good agreement with fate mapping studies of the early zebrafish embryo (Kimmel & Warga, supra; Warga & Kimmel, supra; Heide, et al., Science, 265:517-520, 1994), which indicate that blastomeres undergo extensive cell mixing during the cleavages pnor to gastrulation.
# Ectopic hh alters the expression of par-2, pax-6, and F-spondin. Zebrafish embryos were injected at the 1-8 cell stage with twhh or shh RNA and the pattern of pax-2, pax-6, or F-spondin expression was examined by whole mount in situ hybridization. […] At embryo stage, the anterior-posterior axis of the optic vesicle corresponds to the future proximal-distal axis of the eye. During the next hour of development, the posterior edge of the optic vesicle will separate from the diencephalon (Schmitt and Dowling, Comp. Neur., 344:532-542. 1994).
# 17(a) Cartoons of various twhh open reading frames. SS (shaded) is the predicted N-terminal signal sequence for secretion of these proteins and encompasses the first 27 amino acids of each open reading frame. The arrow indicates the predicted internal site of auto-proteolytic cleavage. Amino acid residue numbers are according to FIG. 13b. The filled triangle denotes the normal termination codon for the twhh open reading frame. Construct UHA contains a mutation that blocks auto-proteolysis (the histidine at residue 273 is changed to an alanine; see Lee, J. J., et al, supra.). Construct U356HA contains a stop codon in place of amino acid residue 357 as well as the H273A mutation in UHA. Construct N encodes just the first 200 amino acids of twhh. Construct C has had the codons for residues 31-197 deleted. […] Constructs were translated in vitro in the presence of ^35S methionine and analyzed by autoradiography after SDS-PAGE. The protein products are shown schematically to the left. […]
molecule,measurement,setting,value
CC1=C2C(=O)[C@H]3[C@@H](CC=C4C[C@@H](O)CC[C@@]43C)[C@@H]2CC[C@]12O[C@@H]1C[C@H](C)CN[C@H]1[C@H]2C [jervine],Accumulation of another radiolabeled sterol (tentatively zymosterol),"cholesterol biosynthesis; COS 7 cells, 24 hr",another radiolabeled sterol was found to accumulate
same,Radiolabeled cholesterol levels,"cholesterol biosynthesis; COS 7 cells, 24 hr",reduced
same,Cholesterol biosynthesis in cultured cells,cholesterol biosynthesis; COS-7 cells,inhibits cholesterol biosynthesis
H329A: Drosophila Hh with His-329 to alanine; in vitro translated full length and His6Hh-C25 context (protein) CGPGRGLGRHRARNLYPLVLKQTIPNLSEYTNSASGPLEGVIRRDSPKFKDLVPNYNRDILFRDEEGTGADRLMSKRCKEKLNVLAYSVMNEWPGIRLLVTESWDEDYHHGQESLHYEGRAVTIATSDRDQSKYGMLARLAVEAGFDWVSYVSRRHIYCSVKSDSSISSHVHGCFTPESTALLESGVRKPLGELSIGDRVLSMTANGQAVYSEVILFMDRNLEQMQNFVQLHTDGGAVLTVTPAALVSVWQPESQKLTFVFADRIEEKNQVLVRDVETGELRPQRVVKVGSVRSKGVVAPLTREGTIVVNSVAASCYAVINSQSLAHWGLAPMRLLSTLEAWLPAKEQLHSSPKVVSSAQQQNGIHWYANALYKVKDYVLPQSWRHD,Auto-proteolysis (processing) of in vitro translated protein,auto-proteolysis,blocked or severely inhibited
same,Cholesterol-stimulated autocleavage (cholesterol transfer),Hh autoprocessing; 350 μM cholesterol/1 mM DTT,inactive
same,DTT-stimulated autocleavage (thioester formation),Hh autoprocessing; 50 mM DTT,inactive
hshh H329A: heat shock-inducible hh with H329A mutation blocking auto-proteolysis (protein) CGPGRGLGRHRARNLYPLVLKQTIPNLSEYTNSASGPLEGVIRRDSPKFKDLVPNYNRDILFRDEEGTGADRLMSKRCKEKLNVLAYSVMNEWPGIRLLVTESWDEDYHHGQESLHYEGRAVTIATSDRDQSKYGMLARLAVEAGFDWVSYVSRRHIYCSVKSDSSISSHVHGCFTPESTALLESGVRKPLGELSIGDRVLSMTANGQAVYSEVILFMDRNLEQMQNFVQLHTDGGAVLTVTPAALVSVWQPESQKLTFVFADRIEEKNQVLVRDVETGELRPQRVVKVGSVRSKGVVAPLTREGTIVVNSVAASCYAVINSQSLAHWGLAPMRLLSTLEAWLPAKEQLHSSPKVVSSAQQQNGIHWYANALYKVKDYVLPQSWRHD,Expansion of dpp expression in the eye-antennal disc,[1],did not induce expansion of dpp expression
same,wg and dpp expression patterns in the leg disc,[1],produced little if any detectable difference in these patterns of expression
same,"Expansion of wg expression beyond wild-type controls, average number of cell diameters ± standard deviation",wg expression; minutes of heat shock: 10,0.7 ± 0.5 cell diameters
same,"Expansion of wg expression beyond wild-type controls, average number of cell diameters ± standard deviation",wg expression; minutes of heat shock: 10/10,1.1 ± 0.4 (145) cell diameters
same,"Expansion of wg expression beyond wild-type controls, average number of cell diameters ± standard deviation",wg expression; minutes of heat shock: 30,0.9 ± 0.4 (111) cell diameters
same,"Expansion of wg expression beyond wild-type controls, average number of cell diameters ± standard deviation",wg expression; minutes of heat shock: 30/30,1.9 ± 0.5 (93) cell diameters
"UHA: twhh with H273A mutation that blocks auto-proteolysis (protein, UniProt Q90419 27-416, looked up, variant H273A) Tiggy-winkle hedgehog protein: CGPGRGYGKRRHPKKLTPLAYKQFIPNVAEKTLGASGKYEGKITRNSERFKELIPNYNPDIIFKDEENTNADRLMTKRCKDKLNSLAISVMNHWPGVKLRVTEGWDEDGHHLEESLHYEGRAVDITTSDRDKSKYGMLSRLAVEAGFDWVYYESKAHIHCSVKAENSVAAKSGGCFPGSGTVTLGDGTRKPIKDLKVGDRVLAADEKGNVLISDFIMFIDHDPTTRRQFIVIETSEPFTKLTLTAAALVFVGNSSAASGITATFASNVKPGDTVLVWEDTCESLKSVTVKRIYTEEHEGSFAPVTAHGTIIVDQVLASCYAVIENHKWAHWAFAPVRLCHKLMTWLFPARESNVNFQEDGIHWYSNMLFHIGSWLLDRDSFHPLGILHLS",Ectopic activation (induction) of pax-2 in the developing eye,[2],only somewhat less active than C in inducing pax-2
same,Repression of pax-6,[2],not able to repress pax6 efficiently
"U356HA: twhh with stop codon in place of residue 357 and the H273A mutation (protein, UniProt Q90419 27-416, looked up, variant H273A, truncated after residue 356, twhh with stop codon in place of residue 357 and the H273A mutation) Tiggy-winkle hedgehog protein: CGPGRGYGKRRHPKKLTPLAYKQFIPNVAEKTLGASGKYEGKITRNSERFKELIPNYNPDIIFKDEENTNADRLMTKRCKDKLNSLAISVMNHWPGVKLRVTEGWDEDGHHLEESLHYEGRAVDITTSDRDKSKYGMLSRLAVEAGFDWVYYESKAHIHCSVKAENSVAAKSGGCFPGSGTVTLGDGTRKPIKDLKVGDRVLAADEKGNVLISDFIMFIDHDPTTRRQFIVIETSEPFTKLTLTAAALVFVGNSSAASGITATFASNVKPGDTVLVWEDTCESLKSVTVKRIYTEEHEGSFAPVTAHGTIIVDQVLASCYAVIENHKWAHWAFAPVRLCHKLMTWLFPARESNVNFQEDGIHWYSNMLFHIGSWLLDRDSFHPLGILHLS",Repression of pax-6,[2],activities not significantly different from N
